Reference: paper PMC7518282

System: PAL
Assay: plate RNA binding assay (RiboGreen), immobilized PAL
Conditions: 12 mM HEPES/KOH pH 7.2, 135 mM KCl, 10 mM NaCl, 10% w/v glycerol, 0.5 mg/mL heparin, 0.5 mg/mL BSA, 25 C, 30 min, 465 nm light or dark, 100 or 1000 nM RNA

Row | Sequence | binding signal (% (normalization reference)) (blue light 465 nm) | binding signal (% of aptamer 53 in light) (1000 nM RNA, dark (block inferred from row order), mean of 6 printed values) | binding signal (% of aptamer 53 in light)
1 | GGGAGGACGAUGCGGCCCGUACAGCAGCGAUGCGGGUCGCGUGUCCACCCCGGCUCAGACGACUCGCUGAGGAUCCGAGA [aptamer 53] | 100 | – | –
2 | GGGGUGGAAUCUUUACAGGACUAUCACGGUACAGCACCGAUGCCGGAUAGUCCUGUAAAGAUUCCACUU [SHCDK1m] | – | 1.35 | 3.97
